Test results: EP4371564A2
Read-outs that look alike come from different tables or passages of the source.

Assays:
[1] = biological target: T4 capsid (empty head isolated from 10-amber 13-amber hoc-del soc-del T4 phage-infected E. coli) (bacteriophage T4) (UniProt P04535)
[2] = biological target: T4 capsid (empty head isolated from 10-amber 13-amber hoc-del soc-del T4 phage-infected E. coli) (bacteriophage T4) (UniProt P04535); experiment: Cas9-Soc in complex with gRNA displayed on T4 capsid
[3] = biological target: T4 capsid (empty head isolated from 10-amber 13-amber hoc-del soc-del T4 phage-infected E. coli) (bacteriophage T4) (UniProt P04535); experiment: Cas9-Soc in complex with siRNA displayed on T4 capsid
[4] = biological target: T4 capsid (empty head isolated from 10-amber 13-amber hoc-del soc-del T4 phage-infected E. coli) (bacteriophage T4) (UniProt P04535); experiment: Cas9-Soc-gRNA RNP co-displayed with Cre-Hoc on the same T4 capsid
[5] = biological target: T4 capsid (empty head isolated from 10-amber 13-amber hoc-del soc-del T4 phage-infected E. coli) (bacteriophage T4) (UniProt P04535); experiment: in vitro display on T4 heads, sedimentation, SDS-PAGE densitometry with gp23* as internal control
[6] = biological target: T4 capsid (empty head isolated from 10-amber 13-amber hoc-del soc-del T4 phage-infected E. coli) (bacteriophage T4) (UniProt P04535); experiment: display on T4 capsids at increasing ratios, SDS-PAGE (FIG. 21)
[7] = biological target: T4 capsid (empty head isolated from 10-amber 13-amber hoc-del soc-del T4 phage-infected E. coli) (bacteriophage T4) (UniProt P04535); experiment: Cre-Hoc co-displayed with Cas9-Soc-gRNA RNP on the same T4 capsid
[8] = biological target: T4 capsid (empty head isolated from 10-amber 13-amber hoc-del soc-del T4 phage-infected E. coli) (bacteriophage T4) (UniProt P04535); experiment: copies displayed per T4 capsid, Soc-RGD against RGD-Hoc
[9] = biological target: T4 capsid (empty head isolated from 10-amber 13-amber hoc-del soc-del T4 phage-infected E. coli) (bacteriophage T4) (UniProt P04535); experiment: Soc-TAT displayed on T4(Luci) capsids used for transduction (FIG. 28)
[10] = biological target: T4 capsid (empty head isolated from 10-amber 13-amber hoc-del soc-del T4 phage-infected E. coli) (bacteriophage T4) (UniProt P04535); experiment: display on T4 capsids at increasing ratios, SDS-PAGE (FIG. 20)

Cas9-Soc (SEQ ID NO: 16) (from UniProt Q99ZW2 1-1368)
Copies/ capsid (copies per capsid) [1]: 550 | copies per capsid (copies per capsid) [2]: 280 | copies per capsid (copies per capsid) [3]: 280 | molecules per AV (molecules per capsid) [4]: 270

Cpf1-Soc (SEQ ID NO: 17)
Copies/ capsid (copies per capsid) [5]: 450

Cre-Hoc (SEQ ID NO: 18)
Copies/ capsid (copies per capsid) [1]: 95 | ratio of protein molecules to binding sites at saturation (molecules per binding site) [6]: 15 to 20 | molecules per AV (molecules per capsid) [7]: 50

Cre-Soc (SEQ ID NO: 22)
Copies/ capsid (copies per capsid) [1]: 630

GFP-Soc (from UniProt P03715 1-80)
Copies/ capsid (copies per capsid) [1]: 660

RGD-Hoc (SEQ ID NO: 19) (from UniProt P18056 1-376)
Copies/ capsid (copies per capsid) [5]: 85

Soc-RGD (from UniProt P03715 1-80)
Copies/ capsid (copies per capsid) [1]: 710 | fold copy number against RGD-Hoc [8]: 8.3 fold

Soc-TAT (from UniProt P03715 1-80)
Copies/ capsid (copies per capsid) [1]: 750 | copies per capsid (copies per capsid) [9]: 520

β-Gal-Soc (from UniProt P00722 2-1024; P03715 1-80) (enzyme)
Copies/ capsid (copies per capsid) [1]: 320 | ratio of protein molecules to binding sites at saturation (molecules per binding site) [10]: 15 to 20
